Assay results reported in publication PMC4462998, “Cell age dependent concentration of Escherichia coli divisome proteins analyzed with ImageJ and ObjectJ” (Frontiers in Microbiology, 2015).

Target: T1, FtsQ (Escherichia coli, UniProt P06136 1-276)
T1 construct: FtsQ of Escherichia coli
Experiment: not stated; unpublished results (Luirink and den Blaauwen); method not given

T1 sequence (P06136 whole entry): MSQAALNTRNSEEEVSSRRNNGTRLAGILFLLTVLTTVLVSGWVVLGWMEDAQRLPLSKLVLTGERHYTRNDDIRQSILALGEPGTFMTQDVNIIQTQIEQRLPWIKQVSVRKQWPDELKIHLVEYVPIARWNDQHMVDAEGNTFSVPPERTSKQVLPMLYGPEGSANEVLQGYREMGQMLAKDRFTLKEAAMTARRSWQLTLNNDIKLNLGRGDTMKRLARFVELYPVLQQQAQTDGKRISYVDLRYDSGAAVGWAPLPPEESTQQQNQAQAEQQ

B1: FtsB (natural protein, Escherichia coli, UniProt P0A6S5 1-103, looked up)
chain: MGKLTLLLLAILVWLQYSLWFGKNGIHDYTRVNDDVAAQQATNAKLKARNDQLFAEIDDLNGGQEALEERARNELSMTRPGETFYRLVPDASKRAQSAGQNNR
notes: FtsB of Escherichia coli
stoichiometry N: 1
